Test results from article PMC3988316 (Cell, 2013).
No end group written: not given here. cellulose‑PEG membrane = cellulose-PEG membrane solid support to which peptides are linked at the C-terminus as "dots"

Biological target: N-terminally flag-tagged full-length S. cerevisiae Ubr1 (S. cerevisiae, UniProt P19812 1-1950)
Assay: peptide or protein array

Sequence of N-terminally flag-tagged full-length S. cerevisiae Ubr1 (P19812 whole entry): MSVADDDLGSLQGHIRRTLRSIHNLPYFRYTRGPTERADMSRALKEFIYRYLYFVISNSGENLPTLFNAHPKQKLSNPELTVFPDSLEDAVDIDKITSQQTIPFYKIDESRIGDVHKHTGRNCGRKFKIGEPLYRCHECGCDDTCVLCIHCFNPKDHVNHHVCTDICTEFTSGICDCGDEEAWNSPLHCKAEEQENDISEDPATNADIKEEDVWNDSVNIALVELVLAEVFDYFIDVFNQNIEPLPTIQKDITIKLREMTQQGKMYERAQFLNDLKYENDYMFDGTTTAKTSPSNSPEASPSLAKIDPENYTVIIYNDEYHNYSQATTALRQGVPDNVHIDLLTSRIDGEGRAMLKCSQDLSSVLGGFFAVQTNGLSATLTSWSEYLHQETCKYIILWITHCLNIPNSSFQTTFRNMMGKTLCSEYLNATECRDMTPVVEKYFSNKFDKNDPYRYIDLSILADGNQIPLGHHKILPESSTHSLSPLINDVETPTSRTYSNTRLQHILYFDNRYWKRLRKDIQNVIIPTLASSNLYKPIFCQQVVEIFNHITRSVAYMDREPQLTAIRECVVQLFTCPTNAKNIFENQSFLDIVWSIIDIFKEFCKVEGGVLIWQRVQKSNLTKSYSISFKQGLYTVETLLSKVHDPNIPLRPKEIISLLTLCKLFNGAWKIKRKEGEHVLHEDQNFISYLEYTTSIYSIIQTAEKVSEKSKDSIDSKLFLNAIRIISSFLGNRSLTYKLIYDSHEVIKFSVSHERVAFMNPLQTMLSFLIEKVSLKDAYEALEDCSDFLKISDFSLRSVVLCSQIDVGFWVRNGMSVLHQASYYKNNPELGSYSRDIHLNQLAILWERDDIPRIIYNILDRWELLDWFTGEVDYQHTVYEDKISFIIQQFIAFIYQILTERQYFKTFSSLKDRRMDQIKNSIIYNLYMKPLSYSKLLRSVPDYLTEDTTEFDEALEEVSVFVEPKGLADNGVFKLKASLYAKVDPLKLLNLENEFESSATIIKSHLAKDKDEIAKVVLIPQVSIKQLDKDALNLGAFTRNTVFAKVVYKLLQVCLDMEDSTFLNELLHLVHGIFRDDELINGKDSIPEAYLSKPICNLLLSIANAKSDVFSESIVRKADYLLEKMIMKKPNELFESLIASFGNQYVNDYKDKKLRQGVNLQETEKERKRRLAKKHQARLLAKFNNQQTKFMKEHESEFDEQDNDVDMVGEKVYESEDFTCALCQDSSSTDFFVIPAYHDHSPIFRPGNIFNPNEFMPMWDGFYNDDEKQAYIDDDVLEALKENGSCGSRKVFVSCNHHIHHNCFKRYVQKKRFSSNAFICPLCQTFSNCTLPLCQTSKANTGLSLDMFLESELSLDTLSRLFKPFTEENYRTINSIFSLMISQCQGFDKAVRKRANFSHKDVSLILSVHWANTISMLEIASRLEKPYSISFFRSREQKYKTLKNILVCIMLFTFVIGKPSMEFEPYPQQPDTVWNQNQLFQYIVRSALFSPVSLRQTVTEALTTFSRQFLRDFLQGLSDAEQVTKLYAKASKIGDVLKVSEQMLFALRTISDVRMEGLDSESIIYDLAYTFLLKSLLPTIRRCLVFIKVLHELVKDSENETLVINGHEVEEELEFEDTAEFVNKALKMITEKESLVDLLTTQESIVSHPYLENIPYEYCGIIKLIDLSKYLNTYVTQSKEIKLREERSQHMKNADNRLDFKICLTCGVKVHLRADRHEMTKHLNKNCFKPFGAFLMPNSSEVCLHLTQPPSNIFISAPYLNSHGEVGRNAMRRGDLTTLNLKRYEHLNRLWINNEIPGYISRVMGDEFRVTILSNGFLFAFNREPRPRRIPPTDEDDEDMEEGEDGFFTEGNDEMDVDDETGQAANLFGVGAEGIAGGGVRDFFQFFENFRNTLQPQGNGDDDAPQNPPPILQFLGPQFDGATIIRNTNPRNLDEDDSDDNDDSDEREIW

| binding result | Binder |
| --- | --- |
| binds | MAGSGAWLLP-{cellulose‑PEG membrane} [Met-Ala-e^K(3–10) peptide] |
| binds | MYGSGAWLLP-{cellulose‑PEG membrane} [Met-Tyr-e^K(3–10) peptide] |

More lines, now with the values behind:

| Binder | binding result |
| --- | --- |
| MWGSGAWLLP-{cellulose‑PEG membrane} [Met-Trp-e^K(3–10) peptide] | binds |
| MVGSGAWLLP-{cellulose‑PEG membrane} [Met-Val-e^K(3–10) peptide] | binds |
| MIGSGAWLLP-{cellulose‑PEG membrane} [Met-Ile-e^K(3–10) peptide] | binds |
| MFGSGAWLLP-{cellulose‑PEG membrane} [Met-Phe-e^K(3–10) peptide] | binds |
